Data published in patent publication US20240092908A1 (ZHEJIANG DOER BIOLOGICS, published 2024).

Legend:
[1] = biological target: fusion protein hPD1-Fc composed of the PD-1 extracellular domain sequence and human IgG1 FC (human); experiment: competitive phage ELISA on coated hPD1-Fc; competitor Bio-hPDL1-HSA
Description: After washing 3 times with PBST, 100 μl of Streptavidin-HRP diluted 1:50000 (Jackson ImmunoResearch Inc) was added to each well and incubated at 37° C. for 1 hour. After washing 3 times with PBS, TMB color development working solution (Beijing ComWin Biotech Co., Ltd.) was added and incubated at room temperature for 5 minutes to develop color, then 1M sulfuric acid was added to terminate the reaction and OD450 nm reading was recorded. […] Competitive positive clones were selected for sequencing and duplicate sequences were removed.

[2] = biological target: T1, Monkey RhPD1-HSA fusion protein (monkey); experiment: ELISA, RhPD1-HSA coated 200 ng/well, VHH 1 µg/mL, anti-his detection
T1 construct: also called monkey PD-1
Description: (§1) Monkey RhPD1-HSA fusion protein (SEQ ID No. 30) was coated on plates at 200 ng/well overnight at 4° C. and blocked with 5% skim milk at room temperature for 1 hour. Purified histidine-tagged anti-PD1 single-domain antibody was diluted to 1 μg/mL and incubated at 37° C. for 1 hour with 100 μL per well. After washing with PBST 3 times, a mouse anti-his tag antibody (R&D Systems, Inc) diluted 1:5000 was added at 100 μl/well and incubated at room temperature for 1 hour. After washing with PBST, HRP-Goat anti-mouse IgG antibody (Thermo Scientific) diluted 1:10000 was added at 100 μl/well and incubated at room temperature for 1 hour. After washing with PBST, TMB color developing solution was added for color development and OD value was measured at 450 nm.

[3] = biological target: T2, fusion protein hPD1-HSA composed of a PD1 extracellular domain sequence and a human serum albumin sequence (human); experiment: ELISA, hPD1-HSA coated 200 ng/well, VHH 1 µg/mL, anti-his detection
T2 construct: PD-1 extracellular domain fused to HSA; also called Human hPD1-HSA; human PD-1
Description: as §1, with “Human hPD1-HSA, mouse mPD1-HSA” for “Monkey RhPD1-HSA fusion protein”, “NO: 57) or HSA (purchased from Sigma) were” for “No. 30) was”, “anti-PD-1” for “anti-PD1”, “solution (Beijing ComWin Biotech Co., Ltd.)” for “solution”

[4] = biological target: T3, HSA (purchased from Sigma) (human, UniProt P02768 25-609); experiment: ELISA, HSA coated 200 ng/well, VHH 1 µg/mL, anti-his detection
T3 construct: Control coat for the HSA part of hPD1-HSA; also called human serum albumin
Description: as §1, with “Human hPD1-HSA, mouse mPD1-HSA” for “Monkey RhPD1-HSA fusion protein”, “NO: 57) or HSA (purchased from Sigma) were” for “No. 30) was”, “anti-PD-1” for “anti-PD1”, “solution (Beijing ComWin Biotech Co., Ltd.)” for “solution”

[5] = biological target: T4, mouse mPD1-HSA fusion protein (mouse); experiment: ELISA, mPD1-HSA coated 200 ng/well, anti-his detection
T4 construct: also called mouse PD-1
Description: as §1, with “Human hPD1-HSA, mouse mPD1-HSA” for “Monkey RhPD1-HSA fusion protein”, “NO: 57) or HSA (purchased from Sigma) were” for “No. 30) was”, “anti-PD-1” for “anti-PD1”, “solution (Beijing ComWin Biotech Co., Ltd.)” for “solution”

| Binder | binding result [1] | OD450 nm [2] [OD450 nm] | OD450 nm [3] [OD450 nm] | OD450 nm [4] [OD450 nm] | binding result [5] |
| --- | --- | --- | --- | --- | --- |
| anti-PD1 single-domain antibody clone 1D3, displayed on recombinant phage (VHH, not shown: large carriers, Tested as phage supernatant in the screening ELISAs of Embodiment 2.2) VHH: QVQLVESGGGLVQPGGSLNLSCVASGSVFIIDVMAWYRQAPGKQRELVAQIINGGATYYADSVKGRFTISRDDTKTTLYLQMNSLKPDDTAVYYCSAEKFNPYRDSTHFWGQGTQVTVSS | binds | – | – | – | – |
| anti-PD-1 single-domain antibody clone 1D3, histidine-tagged, from E. coli (VHH, Alpaca VHH expressed in E. coli Rosetta (DE3) from pET32a+, purified on a Ni column; not shown: C-terminal histidine tag) VHH: QVQLVESGGGLVQPGGSLNLSCVASGSVFIIDVMAWYRQAPGKQRELVAQIINGGATYYADSVKGRFTISRDDTKTTLYLQMNSLKPDDTAVYYCSAEKFNPYRDSTHFWGQGTQVTVSS | – | 2.1 | 2.1 | 0.029 | no binding (tested: 1 µg/mL) |
| anti-PD-1 single-domain antibody clone 1A9, histidine-tagged, from E. coli (VHH, Alpaca VHH expressed in E. coli Rosetta (DE3) from pET32a+, purified on a Ni column; not shown: C-terminal histidine tag) VHH: QVQLVESGGGLVQPGGSLNLSCVASGNVFIIDVMAWYRQAPGKQRELVAQIINGGATYYADSVKGRFTISRDDTKTTLNLQMNSLKPDDTAVYYCSAEKFNPYRDSTHFWGQGTQVTVSA | – | 2.02 | 2.12 | 0.035 | no binding (tested: 1 µg/mL) |
| anti-PD-1 single-domain antibody clone 2C4, histidine-tagged, from E. coli (VHH, Alpaca VHH expressed in E. coli Rosetta (DE3) from pET32a+, purified on a Ni column; not shown: C-terminal histidine tag) VHH: QVQLVESGGGLVRPGGSLRLSCAASGSVFIIDVMAWYRQAPGKQRELVAQIISGDHAYYADSVKGRFTISRDDTKTTLYLQMNSLKPDDTAVYYCSAEKFNPYRDSTYFWGQGTQVTVSS | – | 2.03 | 2.14 | 0.022 | no binding (tested: 1 µg/mL) |
| anti-PD-1 single-domain antibody clone 1A4, histidine-tagged, from E. coli (VHH, Alpaca VHH expressed in E. coli Rosetta (DE3) from pET32a+, purified on a Ni column; not shown: C-terminal histidine tag) VHH: QVQLVESGGGLVQPGGSLNLSCVASGNVFIIDVMAWYRQAPGKQRELVAQIINGDAKYYVDSVKGRFTISRDNTKTTLYLQMNSLKPDDTAIYYCSAEKFNPYRDSTNFWGQGTQVTVSS | – | 2 | 2.13 | 0.021 | no binding (tested: 1 µg/mL) |
| anti-PD-1 single-domain antibody clone 2D9, histidine-tagged, from E. coli (VHH, Alpaca VHH expressed in E. coli Rosetta (DE3) from pET32a+, purified on a Ni column; not shown: C-terminal histidine tag) VHH: QVQLVESGGGLVQPGGSLRLSCAASGSVFIIDVMAWYRQAPGKQRELVAQIINGDAKYYADSVKGRFTISRDNTKTTLYLQMNSLKPDDTAVYYCSAEQFNPYRDSTYFWGQGTQVTVSS | – | 2.1 | 2.11 | 0.019 | no binding (tested: 1 µg/mL) |
| anti-PD-1 single-domain antibody clone 1H1, histidine-tagged, from E. coli (VHH, Alpaca VHH expressed in E. coli Rosetta (DE3) from pET32a+, purified on a Ni column; not shown: C-terminal histidine tag) VHH: QVQLVESGGGLVQPGGSLNLSCVASGSVFIIDVMAWYRQAPGKQRELVAQIINGGASYYADSVKGRFTISRDNTKTTLFLQMNSLKPADTAVYYCNAEKFNPYRDSTNFWGQGTQVTVSS | – | 2.02 | 2.17 | 0.031 | no binding (tested: 1 µg/mL) |
| anti-PD1 single-domain antibody clone 1A4, displayed on recombinant phage (VHH, not shown: large carriers, Tested as phage supernatant in the screening ELISAs of Embodiment 2.2) VHH: QVQLVESGGGLVQPGGSLNLSCVASGNVFIIDVMAWYRQAPGKQRELVAQIINGDAKYYVDSVKGRFTISRDNTKTTLYLQMNSLKPDDTAIYYCSAEKFNPYRDSTNFWGQGTQVTVSS | binds | – | – | – | – |
| anti-PD1 single-domain antibody clone 2C4, displayed on recombinant phage (VHH, not shown: large carriers, Tested as phage supernatant in the screening ELISAs of Embodiment 2.2) VHH: QVQLVESGGGLVRPGGSLRLSCAASGSVFIIDVMAWYRQAPGKQRELVAQIISGDHAYYADSVKGRFTISRDDTKTTLYLQMNSLKPDDTAVYYCSAEKFNPYRDSTYFWGQGTQVTVSS | binds | – | – | – | – |
| anti-PD1 single-domain antibody clone 1A9, displayed on recombinant phage (VHH, not shown: large carriers, Tested as phage supernatant in the screening ELISAs of Embodiment 2.2) VHH: QVQLVESGGGLVQPGGSLNLSCVASGNVFIIDVMAWYRQAPGKQRELVAQIINGGATYYADSVKGRFTISRDDTKTTLNLQMNSLKPDDTAVYYCSAEKFNPYRDSTHFWGQGTQVTVSA | binds | – | – | – | – |
| anti-PD1 single-domain antibody clone 1H1, displayed on recombinant phage (VHH, not shown: large carriers, Tested as phage supernatant in the screening ELISAs of Embodiment 2.2) VHH: QVQLVESGGGLVQPGGSLNLSCVASGSVFIIDVMAWYRQAPGKQRELVAQIINGGASYYADSVKGRFTISRDNTKTTLFLQMNSLKPADTAVYYCNAEKFNPYRDSTNFWGQGTQVTVSS | binds | – | – | – | – |
| anti-PD1 single-domain antibody clone 2D9, displayed on recombinant phage (VHH, not shown: large carriers, Tested as phage supernatant in the screening ELISAs of Embodiment 2.2) VHH: QVQLVESGGGLVQPGGSLRLSCAASGSVFIIDVMAWYRQAPGKQRELVAQIINGDAKYYADSVKGRFTISRDNTKTTLYLQMNSLKPDDTAVYYCSAEQFNPYRDSTYFWGQGTQVTVSS | binds | – | – | – | – |
